The results in this text go back to the nanobody polyreactivity screen of Harvey et al. (2022).

The series is described as follows: yeast display, Sf9 membrane polyspecificity reagent, FACS + sequencing; frameworks hold sequencing errors. The essentials: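 Genes from sorted yeast were amplified by colony PCR, read by MiSeq 2 × 250 sequencing and filtered on CDR length. These cells carried a synthetic nanobody library in Saccharomyces cerevisiae BJ5465 and were sorted by FACS into low and high (top ~1%) gates on anti-HA and streptavidin fluorescence. Polyreactivity is labelled according to the gate of origin.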
Turning to “QVQLVESGGGLVQAGGSLRLSCAASGSTFLLYAMGWYRQEPGKERELVAAITWSGASTYYADSVKGRFTISRDNAKNTVYLQMNSLKPEDTAVYYCATRYRYRYWGQGTQVTVSS”, the “polyreactivity (PSR sort gate)” value is given as “high polyreactivity”. The result for “QVQLVESGGGLVQAGGSLRLSCAASGSTFLLYDKGWYRQAPGKERELVAAITWSGGSTYYADSVKGRFTISRDNAKNTVYVQMNSLIPEDTAVYYCAADSLGDRYYYWGQGTQVTVSS” reads “low polyreactivity”; that for “QVQLVESGGGLVQAGGSLRLSCAASGSTFLPYGMGWYRQAPGKERELVAAITQRGGSTYYADSVKGRFTISRDNAKNTVYLQMNSLKPEDTAVYYCAARYTGRRRLWTGPGYEYWGQGTQVTVSS”, “high polyreactivity”.

“QVQLVESGGGLVQAGGSLRLSCAASGSTFLRNVMGWYRQAPGKERELVAAISSRGGSTHYADSVKGRFTISRDNAKNTVYLQMNSLKPEDTAVYYCNSERTAAQYVRAAYDYWGQGTQVTVSS”: the “polyreactivity (PSR sort gate)” value is “low polyreactivity”.

In the case of “QVQLVESGGGLVQAGGSLRLSCAASGSTFLRYAMGWYRQAPGKERELVAAISVSGGSTYYADSVKGRFTISRDNAKNTVYLQMNSLKPEDTAVYYCNAVTKFHRRYNYWGQGTQVTVSS”, the “polyreactivity (PSR sort gate)” value is reported as “high polyreactivity”. The result for “QVQLVESGGGLVQAGGSLRLSCAASGSTFLSYAMGWYRQAPGKERELVAAISCRGGSTYYADSVKGRFTISRDNAKNTVYLQMNSLKPEDTAVYYCARVYRPSADTYNYWGQGTKVTVSS” reads “high polyreactivity”.

On to “QVQLVESGGGLVQAGGSLRLSCAASGSTFLSYAMGWYRQAPGTERELVAGIDWSTGDTYYADSEKGRFTISRDNAKNTVYLQMNSLKPEDTAVYYCNKANLYRFWEIDYWGQGTQVTLSS”, for which the “polyreactivity (PSR sort gate)” value was “high polyreactivity”. The result for “QVQLVESGGGLVQAGGSLRLSCAASGSTFLTNAIGWYRQATGKEREIVADITWSGGSTYYADSVKGRFTISRDNAKNTVYLQMNSLKPEDTAVYYCAVDAYSSVYLWGFVRFDYWGQGTQVTVSS” reads “low polyreactivity”; that for “QVQLVESGGGLVQAGGSLRLSCAASGSTFLTYAMGWYRQAPGKERELVAAIRWSGGSTYYADSVKGRFTISRDNAKNTVYLQMNSLKPEDTAVYYCAARSPRASGNSDYWGQGTQVTVSS”, “high polyreactivity”; that for “QVQLVESGGGLVQAGGSLRLSCAASGSTFLVNAMGWYRQAPGKERELVAAISRSTGSTYYADSVKGRFTISRDNAKNTVYLQMNSLKPEDTAVYYCAVYRHGYGYNYWGQGSQVTVSS”, “high polyreactivity”. Under “QVQLVESGGGLVQAGGSLRLSCAASGSTFLYYAMGWYIQAPGKERELVAAISRSGGNTYYADSVKGRFTISRDNAKNTVYLQMNSLKPEDTAVDYCAKSPPGRGIRRLYYYWGQGTQVTVSS” stands “high polyreactivity”.

Take “QVQLVESGGGLVQAGGSLRLSCAASGSTFLYYAMGWYRPAPGKERELVAAIRWTAGSTYYADSVKGRFTISRDNAKNSVYLQMNSLKPEDTAVYYCAAVGYVRNYYTYEHWGQGTQVTVSS”: the “polyreactivity (PSR sort gate)” value was “low polyreactivity”.

“QVQLVESGGGLVQAGGSLRLSCAASGSTFLYYAMGWYRQAPGKERELVAVISWSCVSTYYADSVKGRFTISRDNAKYTVYLQMNSLKPEDTAVSYCAADWDWRFHRMNYWGQGTQVTVSS”: the “polyreactivity (PSR sort gate)” value was “low polyreactivity”. Under “QVQLVESGGGLVQAGGSLRLSCAASGSTFLYYAMGWYRQAPGKERELVAVISWSGVSTYYADSVKGRFTISRYNAKNTVYLQMNSLKPEDTAVYYCNTGNHYIRTYGYWGLGTQVTVSS” stands “low polyreactivity”.

For “QVQLVESGGGLVQAGGSLRLSCAASGSTFLYYGMGWYRQAPGKERALVAGIDGTGSSTYYADSVKGRFTISRDNAKNTVYLQMNSLKPEDTAVYYCAKRYPRYRSRYYYWGQGTQVTVSS”, the “polyreactivity (PSR sort gate)” value is listed as “low polyreactivity”. Under “QVQLVESGGGLVQAGGSLRLSCAASGSTFNDNAMGWYRPAPGKERELVAAIRWSGGSTYYADSVKGRFTISRDNAKNTVYLQMNSLKPEDTAVYYCAASRRYYLTYRYYYWGQGTQVTVSS” stands “high polyreactivity”; under “QVQLVESGGGLVQAGGSLRLSCAASGSTFNDNAMGWYRQAPGKERELVAAIRWSGGSTYYADSVKGRFTISRDNAKNTVYLQMNSLKPEDTAVYYCAASRRYYLTYRYYYWGQGTQVTVSS”, “high polyreactivity”.

“QVQLVESGGGLVQAGGSLRLSCAASGSTFNEYVMGWYRQAPGKERELVAAITGGGGRTYYADSVKGRFTISRDNAKNTVYLQMNSQKPEDTAVYYCAKRYLYGTYWGFFRYDYWGQGTQVTVSS”: the “polyreactivity (PSR sort gate)” value was “low polyreactivity”. Turning to “QVQLVESGGGLVQAGGSLRLSCAASGSTFNKYAMGWYRQAPGKERELVAAIRSNGVRTYYADSVKGRFTISRDNAKNTVYLQMNSLKPEDTAVYYCNKRYTYRYDYWGQGTQVTVSS”, the “polyreactivity (PSR sort gate)” value was “high polyreactivity”. As to “QVQLVESGGGLVQAGGSLRLSCAASGSTFNPYAMAWYRQAPGKEREFVAAISWRGGSTYYADSVKGRFTISRDNAKNTVYLQMNSLKPEDTAVYYCAARRLYSHTTSGRGYWGQGTQVTVSS”, the “polyreactivity (PSR sort gate)” value is on record as “high polyreactivity”. Under “QVQLVESGGGLVQAGGSLRLSCAASGSTFNPYAMGWYRQAPGKERELVATITWRGTSTYYADSVKGRFTISRDNAKNTVYLQMNSLKPEDTPVYYCAARVRYKYDYWGQGTQVTVSS” stands “high polyreactivity”. The result for “QVQLVESGGGLVQAGGSLRLSCAASGSTFNRNAMGWYRQAPGKERELVAAISWRGDSTSYADSVKGRFTISRDNAKNTVYLQMNSLKPEDTAVYYCAAYRVILYYLYDYWGQGTQVTVSS” reads “low polyreactivity”; that for “QVQLVESGGGLVQAGGSLRLSCAASGSTFNRNAMGWYRQAPGKERELVADISRGGRTYYSDSVKGRFTITRDNAKNTVYLQMNSLKPEDTAVFYCATVVSRGKQPFDMDYWGQGTQVTVSS”, “low polyreactivity”; that for “QVQLVESGGGLVQAGGSLRLSCAASGSTFNRNTMGWYRQAPGKERELLAAISRRGGSTYYADSVKGRFTISRDNAKNTVYLQMNSLKPEDTAVYYCAAGREYRVYKGAQEFDYWGQGTQVTVSS”, “high polyreactivity”. Under “QVQLVESGGGLVQAGGSLRLSCAASGSTFNRNTMGWYRQAPGKERELVAAITSSGGRTYYADSVKGRFTISRDNAKNTVYLQVNSLKPEDTAVYYCANVIRVLIAGRFDSWGQGTHVTVSS” stands “high polyreactivity”. With “QVQLVESGGGLVQAGGSLRLSCAASGSTFNRYAMGWYRQAPGKERELVAAISLSGGSTYYADSVKGRFTISRDNAKNTVYLQMNSLKPEDTAVYYCAADIFYYSSSYGYWGQGTQVTVSS”, the “polyreactivity (PSR sort gate)” value is recorded as “low polyreactivity”.

For the sequence “QVQLVESGGGLVQAGGSLRLSCAASGSTFNRYAMGWYRQAPGKERELVASISCSGGGSTYYADSVKGRFTISRDNAKNTVYLQMNSLKPEDTAVYYCAVSRDSYGGKGSVLYDYWGQGTQVTVSS”, the “polyreactivity (PSR sort gate)” value is on record as “low polyreactivity”. Under “QVQLVESGGGLVQAGGSLRLSCAASGSTFNSYAMGWYRQAPGKEWELVAAITSSVGSTYYADSVKGRFTISRDNAKNTVYLQMNSLKPEDTAVYYCAADYFSFWYFSGYDYWGQGTQVTVSS” stands “low polyreactivity”. The result for “QVQLVESGGGLVQAGGSLRLSCAASGSTFNSYVMGWYRQAPGKERELVAAITSSGSTYYADSVKGRFTISRDNAKNTVYLQMNSLKPEDTAVYYCNAQDAWEWQGVWVGARDDYDYWGQGTQVTVSS” reads “low polyreactivity”; that for “QVQLVESGGGLVQAGGSLRLSCAASGSTFNTYDMGWYRQAPGKERELVAAISFSDASTYYADSVKGRFTISRDNAKYTVYLQMNSLKPEDTAVYYCAADTRRITTVTTGEYGYWGQGTQVTVSS”, “low polyreactivity”.
